The target in this assay is histones. The assay is described as follows: ELISA. A general note: An ELISA detects its analyte on a solid surface through an enzyme-linked reagent.

The Kd is the concentration at which binding is half-saturated.

B1: murine IMMU-H4 antibody (parental murine anti-histone H4 antibody) (antibody, V domains shown)
VH: QVQLQQSGAELVRPGASVKLSCTASGFNIKDDYLHWVKQRPEQGLEWIGWIDPENGDTEYASKFQGKATITADTSSNTAYLQLSSLTSEDTAVYYCSSPLVHLRTFAYWGQGTLVTVS
VL: DIQLTQSPASLAVSLGQRATISCRASESVDSYDNSLHWFQQKPGQPPKLLIYLASNLESGVPARFSGSGSRTDFTLTIDPVEADDAATYYCQQNNEDPWTFGGGTKLEIKR
For B1, the dissociation constant Kd was 6.6 nM.

The values are drawn from patent US20160130333A1.
